For assay [1], the target named is T1, recombinant human leukemia inhibitory factor (125I-labeled) (human, UniProt P15018 23-202, radioiodinated (125I)).
T1 construct: also called LIF; 125I-LIF
Put plainly: 125I-LIF binding to Fc fusion captured on Protein A beads. The method, then:
(§1) The transfected cells were cultured to allow expression and secretion of the fusion proteins into the culture medium. Cross-linked agarose beads bearing Protein A (Protein A Sepharose CL-4B, Pharmacia Biotech, Inc., Piscataway, N.J.) were added to the culture supernatants, whereupon the fusion proteins bound to the beads via the interaction of the Fc moiety with the Protein A. Radioiodinated oncostatin M or radioiodinated LIF was also added to the culture supernatants. Preparation of ¹²⁵I-oncostatin M is described in example 2 above. Among the known procedures for purifying and radioiodinating LIF are those described in example 1 of U.S. Pat. No. 5,284,755. The ¹²⁵I-LIF employed in this assay was recombinant human LIF labeled with 125I using the enzymobead reagent (BioRad).
(§2) The culture supernatants were incubated with the Protein A beads and ¹²⁵I-LIF or ¹²⁵I-oncostatin M for 18 hours at 4° C. Free and cell-bound ¹²⁵I-LIF or ¹²⁵i-oncostatin M were separated by low speed centrifugation through a single step density gradient of 3% glucose in PBS. The bead-bound radioiodinated proteins were quantified on a Packard Autogamma counter.

In assay [2] the target is T2, oncostatin M (125I-labeled) (UniProt P13725 26-221, limits assumed, radioiodinated (125I)).
T2 construct: also called OSM; 125I-OSM
T2 sequence (looked up): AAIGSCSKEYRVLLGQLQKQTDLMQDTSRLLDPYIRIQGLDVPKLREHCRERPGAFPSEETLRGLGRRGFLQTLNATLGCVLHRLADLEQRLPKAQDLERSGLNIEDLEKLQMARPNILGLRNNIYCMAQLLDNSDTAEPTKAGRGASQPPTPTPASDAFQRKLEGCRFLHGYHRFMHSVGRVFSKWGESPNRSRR
In words: 125I-oncostatin M binding to Fc fusion captured on Protein A beads. The method, then:
as §1, §2

Assay [3] concerns the target T1, recombinant human leukemia inhibitory …. In words: 125I-LIF binding to Fc fusions captured on Protein A beads. The method, then:
as §1, §2

T1 sequence (P15018 23-202 limits assumed): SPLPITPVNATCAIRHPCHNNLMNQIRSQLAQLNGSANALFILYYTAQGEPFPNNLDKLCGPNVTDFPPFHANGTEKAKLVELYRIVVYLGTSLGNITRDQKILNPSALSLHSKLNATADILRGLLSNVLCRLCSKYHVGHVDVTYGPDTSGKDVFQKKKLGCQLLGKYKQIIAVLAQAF

B1: soluble OSM-Rβ/Fc fusion protein (Fc fusion)
chain: ERLPLTPVSLKVSTNSTRQSLHLQWTVHNLPYHQELKMVFQIQISRIETSNVIWVGNYSTTVKWNQVLHWSWESELPLECATHFVRIKSLVDDAKFPEPNFWSNWSSWEEVSVQDSTGQDILFVFPKDKLVEEGTNVTICYVSRNIQNNVSCYLEGKQIHGEQLDPHVTAFNLNSVPFIRNKGTNIYCEASQGNVSEGMKGIVLFVSKVLEEPKDFSCETEDFKTLHCTWDPGTDTALGWSKQPSQSYTLFESFSGEKKLCTHKNWCNWQITQDSQETYNFTLIAENYLRKRSVNILFNLTHRVYLMNPFSVNFENVNATNAIMTWKVHSIRNNFTYLCQIELHGEGKMMQYNVSIKVNGEYFLSELEPATEYMARVRCADASHFWKWSEWSGQNFTTLEAAPSEAPDVWRIVSLEPGNHTVTLFWKPLSKLVEPRSCDKTHTCPPCPAPELLGGPSVFLFPPKPKDTLMISRTPEVTCVVVDVSHEDPEVKFNWYVDGVEVHNAKTKPREEQYNSTYRVVSVLTVLHQDWLNGKDYKCKVSNKALPAPMQKTISKAKGQPREPQVYTLPPSRDELTKNQVSLTCLVKGFYPRHIAVEWESNGQPENNYKTTPPVLDSDGSFFLYSKLTVDKSRWQQGNVFSCSVMHEALHNHYTQKSLSLSPGK
notes: Truncated extracellular domain of OSM-Rβ; Tested from culture supernatant, captured on Protein A beads; also called experiment D
As for B1, the binding result in assay [1] and in assay [2] was “no binding” throughout.

B2: soluble human gp130/Fc fusion protein (Fc fusion)
chain: ELLDPCGYISPESPVVQLHSNFTAVCVLKEKCMDYFHVNANYIVWKTNHFTIPKEQYTIINRTASSVTFTDIASLNIQLTCNILTFGQLEQNVYGITIISGLPPEKPKNLSCIVNEGKKMRCEWDGGRETHLETNFTLKSEWATHKFADCKAKRDTPTSCTVDYSTVYFVNIEVWVEAENALGKVTSDHINFDPVYKVKPNPPHNLSVINSEELSSILKLTWTNPSIKSVIILKYNIQYRTKDASTWSQIPPEDTASTRSSFTVQDLKPFTEYVFRIRCMKEDGKGYWSDWSEEASGITYEDRPSKAPSFWYKIDPSHTQGYRTVQLVWKTLPPFEANGKILDYEVTLTRWKSHLQNYTVNATKLTVNLTNDRYLATLTVRNLVGKSDAAVLTIPACDFQATHPVMDLKAFPKDNMLWVEWTTPRESVKKYILEWCVLSDKAPCITDWQQEDGTVHRTYLRGNLAESKCYLITVTPVYADGPGSPESIKAYLKQAPPSKGPTVRTKKVGKNEAVLEWDQLPVDVQNGFIRNYTIFYRTIIGNETAVNVDSSHTEYTLSSLTSDTLYMVRMAAYTDEGGKDGPEPRSCDKTHTCPPCPAPELLGGPSVFLFPPKPKDTLMISRTPEVTCVVVDVSHEDPEVKFNWYVDGVEVHNAKTKPREEQYNSTYRVVSVLTVLHQDWLNGKDYKCKVSNKALPAPMQKTISKAKGQPREPQVYTLPPSRDELTKNQVSLTCLVKGFYPRHIAVEWESNGQPENNYKTTPPVLDSDGSFFLYSKLTVDKSRWQQGNVFSCSVMHEALHNHYTQKSLSLSPGK
notes: Tested from culture supernatant, captured on Protein A beads; also called soluble gp130/Fc; experiment B; not shown: 7 amino acid peptide linker encoded by the polylinker of plasmid hIgG1Fc
On to B2, for which the binding result in assay [1] is given as “no binding”.

B3: proteins expressed by cells co-transfected with vectors encoding soluble OSM-Rβ/Fc and soluble gp130/Fc (Fc fusion)
chain 1: B1 chain
chain 2: B2 chain
notes: also called OSM-Rβ/Fc and gp130/Fc; experiment F; not shown: 7 amino acid peptide linker encoded by the polylinker of plasmid hIgG1Fc
Consider B3, for which, in assay [3], the binding result was “no binding”.

(Values after patent US20050260197A1 (IMMUNEX, published 2005).)
